In this assay the target is His-tagged SARS-CoV-2 RBD (SARS-CoV-2 Wuhan-Hu-1, UniProt P0DTC2). Kind of assay: BLI. For orientation: BLI is a label-free optical method that tracks binding on a fibre tip over time.

B1: Fab fragment of THSC20.HVTR26 (Fab, V domains shown)
VH: EVQLVESGGGLVQPGGSLRLSCAASGFTVSSNYMSWVRQAPGKGLEWVSAIYSGDSTYYADSVKGRFTISRHNPKNTLYLQMNSLRAEDTAVYYCARLVGALTNIVVSGDGGAFDIWGQGTMVTVSS
VL: SYELTQPASVSGSPGQSITISCTGTSSDVGSYNLVSWYQQHPGKAPKLMIYEVSKRPSGVSNRFSGSKSGNTASLTISGLQAEDEVDYYCCSYAGSSTWVFGGGTKLTVL
Turning to B1, the binding result is “binds”.

These data come from publication doi:10.1101/2022.12.03.518949 (bioRxiv, 2022).
